Key:
[1] = biological target: T1, biotinylated human IL-2 (amino acids 1-133, C-terminal biotin acceptor peptide) (human, UniProt P60568, biotin on the biotin acceptor peptide (BirA ligase)); assay: BLI; biotinylated human IL-2, IL-2Rα or IL-2Rβ on streptavidin tips (Octet Red96); soluble analyte in PBSA (PBS pH 7.2, 0.1% BSA), 300 s association; kinetic fit, 1:1 binding model; IL-2/602 Cx 2:1 by the legend (Supplemental Figure 2, Supplemental Table 1); conditions: both partners purified
T1 construct: also called immobilized IL-2; hIL-2; source: HEK 293F, purified (Ni-NTA, biotinylated with BirA, SEC)

[2] = biological target: T2, biotinylated mouse IL-2Rα (Mus musculus, UniProt P01590, biotin); assay: BLI; same set-up as a7; equilibrium titration, first-order fit (Supplemental Figure 6G,H, Supplemental Table 1); conditions: both partners purified
T2 construct: mouse IL-2 receptor alpha; the supplementary methods describe only the human constructs; probably an ectodomain with BAP like them; also called mIL-2Rα

[3] = biological target: T3, biotinylated mouse IL-2Rβ (Mus musculus, UniProt P16297, biotin); assay: as above; conditions: both partners purified
T3 construct: mouse IL-2 receptor beta; the supplementary methods describe only the human constructs; probably an ectodomain with BAP like them; also called mIL-2Rβ

[4] = biological target: T1, biotinylated human IL-2 (amino acids …); assay: BLI; biotinylated human IL-2 or IL-2Rβ on streptavidin tips; engineered 602 IC variants and controls in PBSA; kinetic fit, 1:1 binding model (Supplemental Figure 5, Supplemental Table 4); conditions: both partners purified
[5] = biological target: T1, biotinylated human IL-2 (amino acids …); assay: BLI; same set-up as a3; equilibrium titration, first-order fit (Supplemental Figure 4A-C, Supplemental Table 4); conditions: both partners purified
[6] = biological target: T1, biotinylated human IL-2 (amino acids …); assay: BLI; same set-up as a1; equilibrium titration of the response at the end of the association phase, first-order fit (Figures 2 and 3, Supplemental Table 1); conditions: both partners purified
[7] = biological target: T1, biotinylated human IL-2 (amino acids …); assay: flow cytometry on cells; yeast displaying scFv incubated with 5 nM biotinylated IL-2 and titrated IL-2Rα in PBE buffer, 2 h, room temperature; detected with Alexa Fluor 647 streptavidin; conditions: one partner purified
[8] = biological target: T4, human IL-2 (human, UniProt P60568); assay: BLI; scFvs with IL-2, kinetics; who was immobilised is not told in what was shown; conditions: both partners purified
T4 construct: Used soluble, immobilised on BLI tips and in the crystals; also called hIL-2; interleukin-2

[9] = biological target: T1, biotinylated human IL-2 (amino acids …); assay: BLI; biotinylated human IL-2 on streptavidin tips; scFvs, IL-2/antibody complexes (2:1) and ICs in PBSA; kinetic fit, 1:1 binding model (Supplemental Figure 6A,B, Supplemental Table 5); conditions: both partners purified
[10] = biological target: T1, biotinylated human IL-2 (amino acids …); assay: BLI; same set-up as a5; equilibrium titration, first-order fit (Supplemental Figure 6C,D, Supplemental Table 5); conditions: both partners purified

T3 sequence (P16297 27-539): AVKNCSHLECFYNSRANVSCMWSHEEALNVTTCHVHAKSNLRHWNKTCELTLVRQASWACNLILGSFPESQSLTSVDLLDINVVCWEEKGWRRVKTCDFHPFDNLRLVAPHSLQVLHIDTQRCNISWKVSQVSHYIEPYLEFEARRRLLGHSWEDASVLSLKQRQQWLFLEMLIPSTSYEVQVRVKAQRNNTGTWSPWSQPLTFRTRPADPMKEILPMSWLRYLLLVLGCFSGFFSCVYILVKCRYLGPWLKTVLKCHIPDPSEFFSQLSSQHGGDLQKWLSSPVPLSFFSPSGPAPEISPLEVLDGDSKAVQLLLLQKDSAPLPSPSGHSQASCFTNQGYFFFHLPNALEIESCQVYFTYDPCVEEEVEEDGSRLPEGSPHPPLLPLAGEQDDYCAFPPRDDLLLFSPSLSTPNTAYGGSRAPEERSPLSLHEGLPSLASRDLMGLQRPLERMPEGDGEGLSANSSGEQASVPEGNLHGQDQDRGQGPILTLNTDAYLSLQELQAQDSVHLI
T2 sequence (P01590 22-268): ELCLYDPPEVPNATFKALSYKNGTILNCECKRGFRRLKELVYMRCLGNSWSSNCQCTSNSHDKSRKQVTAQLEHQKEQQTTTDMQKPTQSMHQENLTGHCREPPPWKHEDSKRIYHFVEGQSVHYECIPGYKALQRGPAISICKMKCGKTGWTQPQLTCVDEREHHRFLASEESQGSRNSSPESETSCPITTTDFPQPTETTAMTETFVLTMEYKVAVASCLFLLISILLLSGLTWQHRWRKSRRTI

B1: anti-human IL-2 antibody 602 (MAB602), recombinant mouse IgG2a kappa (antibody, V domains shown)
VH: EVQLQESGPGLVAPSQSLSITCTVSGFSLTNYDISWIRQPPGKGLEWLGVIWTGGGTNYNSGFMSRLSITKDNSKSQVFLKMNSLQTDDTAIYYCVRQGRTPYWGQGTLVTVSA
VL: DIQVTQSPSSLSVSLGDRVTITCKASKDIYNRLAWYQQKPGNAPRLLISGATSLETGVPSRFSGSGSGKDYTLTITSLQTEDVATYYCQQFWGTPYTFGGGTKLEIK
notes: mouse IgG2a heavy chain constant region; mouse kappa light chain constant region; mouse IgG2a kappa; source: HEK 293F, transient co-transfection, purified (Protein G, SEC); copies: 2 + 2
Kd [1]: 0.13 ± 0.02 nM
koff [1]: 5.1e-05 s⁻¹
kon [1]: 382000 M⁻¹ s⁻¹
Kd [2]: > 10000 nM
Kd [3]: > 10000 nM
Kd [4]: 0.044 ± 0.05 nM
koff [4]: 2.8e-05 s⁻¹
kon [4]: 642000 M⁻¹ s⁻¹
Kd [5]: 3.7 ± 7.4 nM
Kd [6]: 6.3 ± 5.2 nM

B2: yeast-displayed 602 scFv variant E10 (scFv, V domains shown)
VH: EVQLQESGPGLVAPSQSLSITCTVSGFSLTNYDISWIRQPPGKGLEWLGVIWTGGGTNYNSGFMSRLSITKDNSKSQVFLKMNSLQTDDTAIYYCVRQGRAPYWGQGTLVTVSA
VL: DIQVTQSPSSLSVSLGDRVTITCKASKDIYNRLAWYQQKPGNAPRLLISGATSLETGVPSRFSGSGSGKDYTLTITSLQTEDVATYYCQQLWGTPYTFGGGTKLEIK
notes: also called E10 scFv; not shown: Aga2, N-terminal, kept
binding result [7]: binds

B3: yeast-displayed 602 scFv variant A8 (scFv, V domains shown)
VH: EVQLQESGPGLVAPSQSLSITCTVSGFSLTNYDISWIRQPPGKGLEWLGVIWTGGGTNYNSGFMSRLSITKDNSKSQVFLKMNSLQTDDTAIYYCVRQGRTPYWGQGTLVTVSA
VL: DIQVTQSPSSLSVSLGDRVTITCKASKDIYNRLAWYQQKPGNAPRLLISGATSLETGVPSRFSGSGSGKDYTLTITSLQTEDVATYYCQQFWDTPYSFGGGTKLEIK
notes: also called A8 scFv; not shown: Aga2, N-terminal, kept
binding result [7]: binds

B4: yeast-displayed 602 scFv variant C5 (scFv, V domains shown)
VH: EVQLQESGPGLVAPSQSLSITCTVSGFSLTNYDISWIRQPPGKGLEWLGVIWTGGGTNYNSGFMSRLSITKDNSKSQVFLKMNSLQTDDTAIYYCVRQGRTPYWGQGTLVTVSA
VL: DIQVTQSPSSLSVSLGDRVTITCKASKDIYNRLAWYQQKPGNAPRLLISGATSLETGVPSRFSGSGSGKDYTLTITSLQTEDVATYYCQQTWGTPYTFGGGTKLEIK
notes: also called C5 scFv; not shown: Aga2, N-terminal, kept
binding result [7]: binds

B5: F10 scFv (scFv, V domains shown)
VH: EVQLQESGPGLVAPSQSLSITCTVSGFSLTNYDISWIRQPPGKGLEWLGVIWTGGGTNYNSGFMSRLSITKDNSKSQVFLKMNSLQTDDTAIYYCVRQGRSPYWGQGTLVTVSA
VL: DIQVTQSPSSLSVSLGDRVTITCKASKDIYNRLAWYQQKPGNAPRLLISGATSLETGVPSRFSGSGSGKDYTLTITSLQTEDVATYYCQQSWDTPYTFGGGTKLEIK
notes: as the scFv of m13 with the stated changes; numbers count on the scFv (T99S in CDR3H, F91S and G93D in CDR3L, Kabat); soluble scFv used for BLI and for the crystal structure; also called variant F10
fold reduction in dissociation rate against 602 scFv [8]: 3.6 fold

B6: 602 scFv (VH-[G4S]3-VL), soluble (scFv, V domains shown)
VH: EVQLQESGPGLVAPSQSLSITCTVSGFSLTNYDISWIRQPPGKGLEWLGVIWTGGGTNYNSGFMSRLSITKDNSKSQVFLKMNSLQTDDTAIYYCVRQGRTPYWGQGTLVTVSA
VL: DIQVTQSPSSLSVSLGDRVTITCKASKDIYNRLAWYQQKPGNAPRLLISGATSLETGVPSRFSGSGSGKDYTLTITSLQTEDVATYYCQQFWGTPYTFGGGTKLEIK
notes: the scFv chain of PDB 8SOZ; source: HEK 293F, purified (Ni-NTA, SEC)
Kd [9]: 1.94 ± 0.02 nM
koff [9]: 0.00067 s⁻¹
kon [9]: 361000 M⁻¹ s⁻¹
Kd [10]: 9 ± 8.59 nM

B7: yeast-displayed 602 scFv variant H2 (scFv, V domains shown)
VH: EVQLQESGPGLVAPSQSLSITCTVSGFSLTNYDISWIRQPPGKGLEWLGVIWTGGGTNYNSGFMSRLSITKDNSKSQVFLKMNSLQTDDTAIYYCVRQGRSPYWGQGTLVTVSA
VL: DIQVTQSPSSLSVSLGDRVTITCKASKDIHNRLAWYQQKPGNAPRLLISGATSLETGVPSRFSGSGSGKDYTLTITSLQTEDVATYYCQQVWGTPYTFGGGTKLEIK
notes: also called H2 scFv; not shown: Aga2, N-terminal, kept
binding result [7]: binds

B8: F10 scFv (VH-[G4S]3-VL), soluble (scFv, V domains shown)
VH: EVQLQESGPGLVAPSQSLSITCTVSGFSLTNYDISWIRQPPGKGLEWLGVIWTGGGTNYNSGFMSRLSITKDNSKSQVFLKMNSLQTDDTAIYYCVRQGRSPYWGQGTLVTVSA
VL: DIQVTQSPSSLSVSLGDRVTITCKASKDIYNRLAWYQQKPGNAPRLLISGATSLETGVPSRFSGSGSGKDYTLTITSLQTEDVATYYCQQSWDTPYTFGGGTKLEIK
notes: the scFv chain of PDB 8SOW; source: HEK 293F, purified (Ni-NTA, SEC)
Kd [9]: 0.34 ± 0.01 nM
koff [9]: 0.000188 s⁻¹
kon [9]: 563000 M⁻¹ s⁻¹
Kd [10]: 6.12 ± 5.66 nM
